Three molecules from paper PMC12046049 (2025) can be followed below.

Assay [1] addresses HSPB7ACD (α-crystallin domain, residues 78-162 of isoform 2) (human, UniProt Q9UBY9-2 78-162).
The target in assay [2] is T1, HSPB5ACD (α-crystallin domain of HSPB5) (human).
T1 chain: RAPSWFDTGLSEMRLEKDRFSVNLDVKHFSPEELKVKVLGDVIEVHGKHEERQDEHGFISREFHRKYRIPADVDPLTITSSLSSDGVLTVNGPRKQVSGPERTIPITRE

The target of assay [3] is HSPB1ACD (α-crystallin domain of HSPB1) (human).
Chain of HSPB1ACD (α-crystallin domain of HSPB1) (human) (chain, as listed by the source): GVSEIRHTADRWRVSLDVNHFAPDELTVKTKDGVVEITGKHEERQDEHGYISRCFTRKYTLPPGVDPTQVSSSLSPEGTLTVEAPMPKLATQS

B1: HSPB1 C-terminal peptide (cognate peptide of HSPB1ACD) (peptide)
chain: ITIPVTFE
B1 had an equilibrium dissociation constant (Kd) in assay [1] of 109 µM.

B2: HSPB5 C-terminal peptide (cognate peptide of HSPB5ACD) (peptide)
chain: ERTIPITRE
modifications: Limits are not printed. 156-164, containing the IPI motif, is taken by convention from the peptide in the HSPB5 ACD-peptide structure PDB 4M5S; check residues come from the IPI motif, not numbered in the text. Terminal chemistry not stated.
For B2, the dissociation constant Kd in assay [2] was found to be 23 µM; in assay [1] it was 71 µM.

B3: HSPB7 C-terminal peptide (residues 168-175, TFRTEIKI) (peptide)
peptide: TFRTEIKI
Turning to B3, the Kd in assay [2] came out at 186 µM; in assay [1] it was 378 µM; in assay [3] it was 559 µM.

A word on the Kd: it is the constant that tells how readily two partners part at equilibrium.
